One block for each molecule: values may come before it.
Tests used:
[1] = target: T1, HBV polymerase (Hepatitis B virus ayw/Japan/JYW796/1988, UniProt Q9QMI1); experiment: [3H]TTP incorporation, scintillation counting; type: biochemical
T1 construct: gene P

[2] = target: HCV NS3/NS4A protease (Hepatitis C virus (isolate BK), UniProt P26663); settings: NS4A/NS4B-derived fluorogenic peptide substrate, 30 min, 37 °C; used as comparator drug
[3] = target: scavenger receptor class B-type I (SR-B1) (UniProt Q8WTV0); experiment: AlphaScreen or HTRF
Sequence of scavenger receptor class B-type I (SR-B1) (Q8WTV0 whole entry): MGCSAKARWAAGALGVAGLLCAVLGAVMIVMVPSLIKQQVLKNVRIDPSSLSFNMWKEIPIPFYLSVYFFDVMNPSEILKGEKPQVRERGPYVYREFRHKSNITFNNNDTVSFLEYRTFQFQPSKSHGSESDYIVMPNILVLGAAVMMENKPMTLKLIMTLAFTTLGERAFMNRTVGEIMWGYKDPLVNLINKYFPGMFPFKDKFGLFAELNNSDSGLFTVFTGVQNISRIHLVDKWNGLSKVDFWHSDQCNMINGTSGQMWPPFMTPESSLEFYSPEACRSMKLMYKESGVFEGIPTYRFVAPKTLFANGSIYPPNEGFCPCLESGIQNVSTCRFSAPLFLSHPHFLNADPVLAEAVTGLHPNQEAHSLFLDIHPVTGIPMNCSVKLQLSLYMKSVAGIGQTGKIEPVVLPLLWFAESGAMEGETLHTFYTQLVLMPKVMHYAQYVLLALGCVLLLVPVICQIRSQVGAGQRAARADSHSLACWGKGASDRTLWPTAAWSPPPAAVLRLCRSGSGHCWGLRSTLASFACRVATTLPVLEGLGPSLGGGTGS

[4] = target: CD81 (human (endogenous in PBMCs)) (UniProt P60033); experiment: flow cytometry on cells; 1 x 10^6 PBMCs incubated 2 h with 12.5 µM POL, then anti-CD81-FITC antibody at 4 °C for 30 min; binding taken from the fall in unbound CD81
Sequence of CD81 (human (endogenous in PBMCs)) (P60033 whole entry): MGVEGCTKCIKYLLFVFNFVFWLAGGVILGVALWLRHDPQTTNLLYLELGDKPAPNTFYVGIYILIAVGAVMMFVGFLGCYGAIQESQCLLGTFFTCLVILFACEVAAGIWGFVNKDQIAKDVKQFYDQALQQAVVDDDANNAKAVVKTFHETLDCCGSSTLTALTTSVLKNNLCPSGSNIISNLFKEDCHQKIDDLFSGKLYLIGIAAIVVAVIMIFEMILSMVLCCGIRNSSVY

T1 sequence (Q9QMI1 whole entry): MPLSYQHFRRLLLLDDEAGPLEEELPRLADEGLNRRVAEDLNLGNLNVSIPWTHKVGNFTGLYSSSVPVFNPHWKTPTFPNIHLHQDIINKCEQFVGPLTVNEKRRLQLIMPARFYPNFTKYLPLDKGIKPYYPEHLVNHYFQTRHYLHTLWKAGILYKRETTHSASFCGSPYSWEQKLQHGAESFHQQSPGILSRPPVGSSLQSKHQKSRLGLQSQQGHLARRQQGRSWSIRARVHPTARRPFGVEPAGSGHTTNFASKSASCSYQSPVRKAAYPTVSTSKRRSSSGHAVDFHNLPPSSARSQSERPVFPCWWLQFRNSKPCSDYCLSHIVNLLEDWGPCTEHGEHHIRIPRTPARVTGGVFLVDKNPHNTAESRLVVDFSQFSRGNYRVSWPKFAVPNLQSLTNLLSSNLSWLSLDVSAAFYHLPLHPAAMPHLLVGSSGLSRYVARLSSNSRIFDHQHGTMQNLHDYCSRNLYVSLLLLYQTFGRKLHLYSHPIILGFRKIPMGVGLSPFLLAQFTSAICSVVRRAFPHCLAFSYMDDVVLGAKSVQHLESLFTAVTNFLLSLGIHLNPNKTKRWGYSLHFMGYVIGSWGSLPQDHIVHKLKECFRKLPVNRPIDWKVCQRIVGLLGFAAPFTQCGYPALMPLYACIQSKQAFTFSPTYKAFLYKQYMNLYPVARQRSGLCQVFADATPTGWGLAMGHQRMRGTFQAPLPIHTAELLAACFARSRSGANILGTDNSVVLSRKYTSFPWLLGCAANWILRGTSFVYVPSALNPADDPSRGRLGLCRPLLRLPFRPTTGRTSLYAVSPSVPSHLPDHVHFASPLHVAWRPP
Sequence of HCV NS3/NS4A protease (P26663 1027-1657): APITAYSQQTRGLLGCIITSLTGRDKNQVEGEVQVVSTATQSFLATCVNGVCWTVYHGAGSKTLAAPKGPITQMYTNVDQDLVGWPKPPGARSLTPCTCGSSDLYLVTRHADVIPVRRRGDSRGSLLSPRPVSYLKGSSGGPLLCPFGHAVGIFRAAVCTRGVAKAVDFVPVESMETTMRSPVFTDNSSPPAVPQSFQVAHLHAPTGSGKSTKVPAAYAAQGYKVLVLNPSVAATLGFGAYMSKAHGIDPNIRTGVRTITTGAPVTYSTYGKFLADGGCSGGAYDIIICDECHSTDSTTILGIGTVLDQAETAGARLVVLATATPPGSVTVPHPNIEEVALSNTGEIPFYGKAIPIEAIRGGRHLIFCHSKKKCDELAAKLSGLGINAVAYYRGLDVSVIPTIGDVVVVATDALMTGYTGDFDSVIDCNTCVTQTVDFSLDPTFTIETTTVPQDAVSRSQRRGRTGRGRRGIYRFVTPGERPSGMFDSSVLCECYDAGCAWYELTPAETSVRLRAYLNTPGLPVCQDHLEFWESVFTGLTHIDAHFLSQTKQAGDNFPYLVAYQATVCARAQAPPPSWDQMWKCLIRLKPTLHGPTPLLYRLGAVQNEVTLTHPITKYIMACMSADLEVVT
Sequence of HCV NS3/NS4A protease (P26663 1658-1711): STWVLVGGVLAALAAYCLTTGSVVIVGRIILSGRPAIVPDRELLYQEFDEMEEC

Molecule: Nc1ccn([C@@H]2CS[C@H](CO)O2)c(=O)n1 [LAM, lamivudine]
- IC50 [1]: 6.52 nM

Molecule: CC(C)OC(=O)[C@H](C)N[P@](=O)(OC[C@H]1O[C@@H](n2ccc(=O)[nH]c2=O)[C@](C)(F)[C@@H]1O)Oc1ccccc1 [SOF, sofosbuvir]
- IC50 [2]: 15.5 nM

- IC50 [3]: 10.1 nM
- Kd [3]: 3.6 nM
- Ki [3]: 3.03 nM
- percentage of binding to CD81 at 12.5 µM [4]: 58.8%
Molecule: Pleurotus ostreatus lectin (POL) (natural protein)

Source: article PMC12311003, “Biochemical characterization of a novel purified lectin extracted from Pleurotus ostreatus mushroom for its antiviral activity” (Scientific Reports, 2025)
